pKd: −log10 of the molar value.
Molecular target: biotinylated peptide composed of residues 656-683 of the gp41 MPER (RRR-…-RRK-biotin) (HIV-1)
Experiment: SPR

Q: 10E8 antigen-binding fragment (Fab) was tested. Which pKd did it give?
A: 7.77

Reference: article PMC4854285
